Measurements taken from patent US20210388041A1 (NEXEL, published 2021).

Columns and labels:
[1] = target: T1, integrin β3 (integrin αvβ3) (human, UniProt P05106 27-788; P06756 31-1048); assay: proximity ligation assay in human HSCs
T1 construct: whole, on cells; The assays detect the β3 chain with an antibody; The legend speaks of integrin αvβ3 on HSCs; also called Integrin B3; integrin β3/β5
Method: (§1) For the PLA incorporation assay, human HSCs were seeded at 2×10⁴ cells per well on the 18 mm circular cover glass in 12-well plates and cultured for 24 hours. After serum starvation for 24 hours, the cells were treated with 10 ng/ml of TGF-β1 and/or 500 ng/ml of NP-011, and then, further incubated for 30 minutes. The PLA incorporation was accessed using the Duolink In Situ Red Starter Kit (Merck) according to the manufacturer's instructions. Digital images of PLA-positive cells were captured using a microscope (Nikon) and analyzed using ImageJ software <https://imagej.nih.gov/iy>.
(§2) It was investigated herein the mechanism of action for NP-011's rapid and effective suppression TGF-β signaling observed in diseased liver (FIGS. 1E and 2F). One day after administration of NP-011 in TAA-induced fibrotic liver, NP-011 preferentially bound to α-SMA-positive HSCs, and some of NP-011 interacted with macrophages in the liver (FIG. 6). Integrin αvβ3 and αvβ5 on the surface of HSCs have been previously implicated in regulating fibrosis. Additionally, the crosstalk between integrin and TGF-β signaling may be important in the regulation of pathological epithelial to mesenchymal transition (EMT) and myofibroblast differentiation. […] As a consequences of NP-011 treatment in TGF-β1-treated HSCs, the proliferative HSCs returned to quiescent status (FIG. 7D). […]

[2] = target: T2, integrin β5 (integrin αvβ5) (human, UniProt P18084 24-799; P06756 31-1048); assay: proximity ligation assay in human HSCs
T2 construct: whole, on cells; The assays detect the β5 chain with an antibody; The legend speaks of integrin αvβ5 on HSCs; also called Integrin B5; integrin β3/β5
T2 sequence (P18084 24-799, chain 1 of 2): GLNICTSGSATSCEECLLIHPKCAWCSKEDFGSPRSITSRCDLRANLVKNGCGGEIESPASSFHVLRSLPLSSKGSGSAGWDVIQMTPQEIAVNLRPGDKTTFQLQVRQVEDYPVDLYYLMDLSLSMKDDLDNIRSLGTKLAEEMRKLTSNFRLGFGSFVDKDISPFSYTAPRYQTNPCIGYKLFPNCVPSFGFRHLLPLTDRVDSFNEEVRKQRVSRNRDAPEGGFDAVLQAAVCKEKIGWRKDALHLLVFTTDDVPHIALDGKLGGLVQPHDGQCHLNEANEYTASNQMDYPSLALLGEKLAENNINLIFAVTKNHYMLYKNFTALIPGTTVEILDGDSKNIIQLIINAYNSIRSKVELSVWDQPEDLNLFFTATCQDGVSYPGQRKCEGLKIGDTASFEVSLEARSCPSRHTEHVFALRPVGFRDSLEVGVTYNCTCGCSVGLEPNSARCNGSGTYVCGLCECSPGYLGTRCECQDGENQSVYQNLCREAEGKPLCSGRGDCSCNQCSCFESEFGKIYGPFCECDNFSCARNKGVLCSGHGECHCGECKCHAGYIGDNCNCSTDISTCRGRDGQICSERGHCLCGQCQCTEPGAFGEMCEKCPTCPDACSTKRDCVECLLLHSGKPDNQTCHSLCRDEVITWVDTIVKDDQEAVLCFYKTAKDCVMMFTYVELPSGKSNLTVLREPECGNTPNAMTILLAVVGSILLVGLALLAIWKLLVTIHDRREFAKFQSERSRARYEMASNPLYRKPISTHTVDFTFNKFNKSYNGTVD
T2 sequence (P06756 31-1048, chain 2 of 2): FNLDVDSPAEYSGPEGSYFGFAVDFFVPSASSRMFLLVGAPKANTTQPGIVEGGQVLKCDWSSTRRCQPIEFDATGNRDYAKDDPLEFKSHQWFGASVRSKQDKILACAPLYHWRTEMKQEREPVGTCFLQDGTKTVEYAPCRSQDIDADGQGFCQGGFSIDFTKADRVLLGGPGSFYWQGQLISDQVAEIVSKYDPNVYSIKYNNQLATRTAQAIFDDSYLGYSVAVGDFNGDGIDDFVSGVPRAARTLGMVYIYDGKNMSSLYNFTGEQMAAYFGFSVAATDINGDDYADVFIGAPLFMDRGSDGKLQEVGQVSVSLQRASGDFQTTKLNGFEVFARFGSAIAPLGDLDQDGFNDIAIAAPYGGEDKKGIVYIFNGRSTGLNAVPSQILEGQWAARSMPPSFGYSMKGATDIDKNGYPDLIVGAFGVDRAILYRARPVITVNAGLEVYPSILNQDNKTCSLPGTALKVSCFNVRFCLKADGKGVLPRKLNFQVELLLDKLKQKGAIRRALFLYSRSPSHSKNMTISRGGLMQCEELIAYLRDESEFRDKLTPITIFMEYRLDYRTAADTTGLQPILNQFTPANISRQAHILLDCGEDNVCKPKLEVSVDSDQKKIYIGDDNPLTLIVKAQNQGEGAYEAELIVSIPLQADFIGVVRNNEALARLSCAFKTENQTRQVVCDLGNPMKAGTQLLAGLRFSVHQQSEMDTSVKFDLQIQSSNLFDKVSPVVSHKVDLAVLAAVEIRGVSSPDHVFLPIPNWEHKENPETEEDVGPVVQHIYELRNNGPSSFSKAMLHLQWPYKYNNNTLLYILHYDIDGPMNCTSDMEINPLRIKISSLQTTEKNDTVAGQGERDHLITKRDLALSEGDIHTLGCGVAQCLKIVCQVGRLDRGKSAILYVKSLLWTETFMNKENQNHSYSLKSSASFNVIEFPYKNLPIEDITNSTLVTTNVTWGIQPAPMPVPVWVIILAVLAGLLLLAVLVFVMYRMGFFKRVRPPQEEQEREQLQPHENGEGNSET
Method: as §1, §2

T1 sequence (P05106 27-788, chain 1 of 2): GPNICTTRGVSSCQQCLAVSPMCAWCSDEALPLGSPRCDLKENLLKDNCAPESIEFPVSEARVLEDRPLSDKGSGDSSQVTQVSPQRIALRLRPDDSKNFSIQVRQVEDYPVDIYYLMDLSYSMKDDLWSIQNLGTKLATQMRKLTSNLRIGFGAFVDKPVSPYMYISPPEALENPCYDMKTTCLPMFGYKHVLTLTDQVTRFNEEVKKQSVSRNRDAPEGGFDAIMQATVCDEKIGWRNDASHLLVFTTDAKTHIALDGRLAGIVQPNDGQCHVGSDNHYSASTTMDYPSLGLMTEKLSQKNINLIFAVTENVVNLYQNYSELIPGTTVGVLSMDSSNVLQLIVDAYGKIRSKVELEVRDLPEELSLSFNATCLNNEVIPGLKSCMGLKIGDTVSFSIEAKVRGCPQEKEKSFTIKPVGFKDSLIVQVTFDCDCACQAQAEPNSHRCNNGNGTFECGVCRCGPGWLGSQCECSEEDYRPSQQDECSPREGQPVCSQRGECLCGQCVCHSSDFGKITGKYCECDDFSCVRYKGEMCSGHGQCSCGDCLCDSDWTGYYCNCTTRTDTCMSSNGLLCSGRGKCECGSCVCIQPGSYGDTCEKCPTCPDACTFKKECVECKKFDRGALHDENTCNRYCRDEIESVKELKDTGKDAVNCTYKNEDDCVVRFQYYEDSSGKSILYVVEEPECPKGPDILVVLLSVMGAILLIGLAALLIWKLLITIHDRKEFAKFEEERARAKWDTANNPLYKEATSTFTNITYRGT
T1 sequence (P06756 31-1048, chain 2 of 2): as the sequence (P06756 31-1048, chain 2 of 2) above

B1: TGF-β receptor 1 (TGFBRI) (receptor, human, UniProt P36897 34-503, looked up)
chain: LQCFCHLCTKDNFTCVTDGLCFVSVTETTDKVIHNSMCIAEIDLIPRDRPFVCAPSSKTGSVTTTYCCNQDHCNKIELPTTVKSSPGLGPVELAAVIAGPVCFVCISLMLMVYICHNRTVIHHRVPNEEDPSLDRPFISEGTTLKDLIYDMTTSGSGSGLPLLVQRTIARTIVLQESIGKGRFGEVWRGKWRGEEVAVKIFSSREERSWFREAEIYQTVMLRHENILGFIAADNKDNGTWTQLWLVSDYHEHGSLFDYLNRYTVTVEGMIKLALSTASGLAHLHMEIVGTQGKPAIAHRDLKSKNILVKKNGTCCIADLGLAVRHDSATDTIDIAPNHRVGTKRYMAPEVLDDSINMKHFESFKRADIYAMGLVFWEIARRCSIGGIHEDYQLPYYDLVPSDPSVEEMRKVVCEQKLRPNIPNRWQSCEALRVMAKIMRECWYANGAARLTALRIKKTLSQLSQQEGIKM
notes: whole, on cells; Endogenous protein of human HSCs; Detected in situ by PLA and pulled down from cell lysate with a TGFβRI antibody (Abcam ab31013); also called TGFβRI; TGFBR1
- binding result [1]: binds
- binding result [2]: binds
